The record followed here is patent US20190185570A1 (IGM BIOSCIENCES, published 2019).

Assay [1] deals with Fc fusion protein of Human CTLA4 (human) (UniProt P16410). Put plainly: BLI (Fortebio), human CTLA4 Fc fusion immobilized by amine reactive chemistry. Background: In BLI a coated tip is dipped into the sample, and binding shifts an interference pattern.
The target of a further assay is DR5 (UniProt O14763 56-440, limits assumed). Put plainly: cell-based or functional assay.

Chain of Fc fusion protein of Human CTLA4 (human) (P16410 36-161 limits assumed): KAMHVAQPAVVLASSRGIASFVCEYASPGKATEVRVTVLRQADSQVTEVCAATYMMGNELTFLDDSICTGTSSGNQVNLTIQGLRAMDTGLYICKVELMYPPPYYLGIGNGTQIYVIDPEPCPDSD

Broadly, the Kd is a measure of binding affinity in units of concentration. Low values mean a tighter complex, high ones a looser complex. As for “Anti CTLA4 IgG (BioLegend A3.B10.G1) (antibody)”, in assay [1], the Kd is 2 nM.

B1: anti-DR5 IgM (antibody, V domains shown)
VH: EVQLVQSGGGVERPGGSLRLSCAASGFTFDDYGMSWVRQAPGKGLEWVSGINWNGGSTGYADSVKGRVTISRDNAKNSLYLQMNSLRAEDTAVYYCAKILGAGRGWYFDLWGKGTTVTVSS
VL: SSELTQDPAVSVALGQTVRITCQGDSLRSYYASWYQQKPGQAPVLVIYGKNNRPSGIPDRFSGSSSGNTASLTITGAQAEDEADYYCNSRDSSGNHVVFGGGTKLTVLG
For the molecule B1, the “cytotoxic effect, cell viability of COLO205 cells (Cell-Titer Glo), fold against the corresponding IgG” value in the assay with DR5 was over 1000 fold.
